Test results from patent US20240165282A1, “CONFORMATIONAL CONSTRAINED SOMATOSTATIN RECEPTOR 3 PEPTIDE LIGANDS AND THEIR CONJUGATES AND USES THEREOF” (STARGET PHARMA LTD., priority 2021, published 2024).
*1 amine or outer side, *2 acyl side, *3 side chain or, on linkers, in order; H or OH if unused. Bridges are numbered along the chain shown (N, C = ends). [ ]: non-standard residue; d: D form. The star is where a group is joined. DOTA = O=C(O)CN1CCN(CC(=O)O)CCN(CC(=O)*)CCN(CC(=O)O)CC1; N(2-mercaptoethyl)Gly = O=C(CN(CCS[*:3])[*:1])[*:2]

Key:
[1] = molecular target: MCHR1 (human) (UniProt Q99705); test: cell-based or functional assay
[2] = molecular target: TACR1 (human) (UniProt P25103); test: cell-based or functional assay
[3] = molecular target: GALR2 (human) (UniProt O43603); test: cell-based or functional assay
[4] = molecular target: CHRM4 (human) (UniProt P08173); test: cell-based or functional assay
[5] = molecular target: OPRD1 (human) (UniProt P41143); test: cell-based or functional assay
[6] = molecular target: HRH2 (human) (UniProt P25021); test: cell-based or functional assay
[7] = molecular target: PTGER2 (human) (UniProt P43116); test: cell-based or functional assay
[8] = molecular target: CMKLR1 (human) (UniProt Q99788); test: cell-based or functional assay
[9] = molecular target: DRD3 (human) (UniProt P35462); test: cell-based or functional assay
[10] = molecular target: CXCR7 (human) (UniProt P25106); test: cell-based or functional assay
[11] = molecular target: GRPR (human) (UniProt P30550); test: cell-based or functional assay
[12] = molecular target: TBXA2R (human) (UniProt P21731); test: cell-based or functional assay
[13] = molecular target: NPSR1b (human) (UniProt Q6W5P4); test: cell-based or functional assay
[14] = molecular target: TACR3 (human) (UniProt P29371); test: cell-based or functional assay
[15] = molecular target: P2RY11 (human) (UniProt Q96G91); test: cell-based or functional assay
[16] = molecular target: F2RL3 (human) (UniProt Q96RI0); test: cell-based or functional assay
[17] = molecular target: ADCYAP1R1 (human) (UniProt P41586); test: cell-based or functional assay
[18] = molecular target: CHRM3 (human) (UniProt P20309); test: cell-based or functional assay
[19] = molecular target: (CR)L-RAMP1 (human) (UniProt Q16602); test: cell-based or functional assay
[20] = molecular target: SCTR (human) (UniProt P47872); test: cell-based or functional assay
[21] = molecular target: VIPR1 (human) (UniProt P32241); test: cell-based or functional assay
[22] = molecular target: P2RY12 (human) (UniProt Q9H244); test: cell-based or functional assay
[23] = molecular target: PTGER3 (human) (UniProt P43115); test: cell-based or functional assay
[24] = molecular target: P2RY2 (human) (UniProt P41231); test: cell-based or functional assay
[25] = molecular target: C5aR1 (human) (UniProt P21730); test: cell-based or functional assay
[26] = molecular target: MC5R (human) (UniProt P33032); test: cell-based or functional assay
[27] = molecular target: DRD4 (human) (UniProt P21917); test: cell-based or functional assay
[28] = molecular target: ADRA2C (human) (UniProt P18825); test: cell-based or functional assay
[29] = molecular target: NMBR (human) (UniProt P28336); test: cell-based or functional assay
[30] = molecular target: CCR3 (human) (UniProt P51677); test: cell-based or functional assay
[31] = molecular target: C3AR1 (human) (UniProt Q16581); test: cell-based or functional assay
[32] = molecular target: GPR92 (human) (UniProt Q9H1C0); test: cell-based or functional assay
[33] = molecular target: NPY1R (human) (UniProt P25929); test: cell-based or functional assay
[34] = molecular target: human cloned somatostatin receptor 5 (human) (UniProt P35346); test: cell-based or functional assay
[35] = molecular target: P2RY4 (human) (UniProt P51582); test: cell-based or functional assay
[36] = molecular target: EBI2 (human) (UniProt P32249); test: cell-based or functional assay
[37] = molecular target: MC4R (human) (UniProt P32245); test: cell-based or functional assay
[38] = molecular target: HTR1A (human) (UniProt P08908); test: cell-based or functional assay
[39] = molecular target: CXCR3 (human) (UniProt P49682); test: cell-based or functional assay
[40] = molecular target: OXTR (human) (UniProt P30559); test: cell-based or functional assay
[41] = molecular target: human cloned somatostatin receptor 1 (human) (UniProt P30872); test: cell-based or functional assay
[42] = molecular target: ADRA1B (human) (UniProt P35368); test: cell-based or functional assay
[43] = molecular target: MLNR (human) (UniProt O43193); test: cell-based or functional assay
[44] = molecular target: EDG5 (human) (UniProt O95136); test: cell-based or functional assay
[45] = molecular target: NPBWR2 (human) (UniProt P48146); test: cell-based or functional assay
[46] = molecular target: CRTH2 (human) (UniProt Q9Y5Y4); test: cell-based or functional assay
[47] = molecular target: GPR1 (human) (UniProt P46091); test: cell-based or functional assay
[48] = molecular target: CCR5 (human) (UniProt P51681); test: cell-based or functional assay
[49] = molecular target: LHCGR (human) (UniProt P22888); test: cell-based or functional assay
[50] = molecular target: NPY2R (human) (UniProt P49146); test: cell-based or functional assay
[51] = molecular target: CCR4 (human) (UniProt P51679); test: cell-based or functional assay
[52] = molecular target: human cloned somatostatin receptor 2 (human) (UniProt P30874); test: 125I-Tyr11-SRIF-14 displacement
[53] = molecular target: human cloned somatostatin receptor 5 (human) (UniProt P35346); test: 125I-Tyr11-SRIF-14 displacement
[54] = molecular target: human cloned somatostatin receptor 1 (human) (UniProt P30872); test: 125I-Tyr11-SRIF-14 displacement
[55] = molecular target: human cloned somatostatin receptor 3 (human) (UniProt P32745); test: 125I-Tyr11-SRIF-14 displacement

Chain of human cloned somatostatin receptor 1 (human) (P30872 whole entry): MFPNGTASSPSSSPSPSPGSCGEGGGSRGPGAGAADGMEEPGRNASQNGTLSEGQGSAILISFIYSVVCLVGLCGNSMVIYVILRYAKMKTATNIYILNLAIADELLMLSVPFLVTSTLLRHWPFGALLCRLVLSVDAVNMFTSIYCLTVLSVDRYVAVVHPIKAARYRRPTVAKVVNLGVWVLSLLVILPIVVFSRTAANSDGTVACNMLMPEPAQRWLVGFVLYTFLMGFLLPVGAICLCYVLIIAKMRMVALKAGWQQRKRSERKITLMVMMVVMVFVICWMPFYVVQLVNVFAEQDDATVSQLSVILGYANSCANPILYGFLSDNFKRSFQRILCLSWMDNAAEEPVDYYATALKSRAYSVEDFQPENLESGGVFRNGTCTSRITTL
Chain of human cloned somatostatin receptor 5 (human) (P35346 whole entry): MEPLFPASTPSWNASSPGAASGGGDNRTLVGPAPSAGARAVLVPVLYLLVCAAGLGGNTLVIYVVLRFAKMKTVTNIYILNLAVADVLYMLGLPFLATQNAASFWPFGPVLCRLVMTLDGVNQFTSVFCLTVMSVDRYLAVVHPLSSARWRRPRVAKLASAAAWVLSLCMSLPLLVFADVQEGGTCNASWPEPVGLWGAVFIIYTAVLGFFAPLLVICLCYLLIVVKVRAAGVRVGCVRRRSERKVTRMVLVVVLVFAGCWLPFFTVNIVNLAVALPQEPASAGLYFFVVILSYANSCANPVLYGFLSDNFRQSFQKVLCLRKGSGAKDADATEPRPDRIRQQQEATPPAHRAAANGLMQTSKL
Chain of human cloned somatostatin receptor 2 (human) (P30874 whole entry): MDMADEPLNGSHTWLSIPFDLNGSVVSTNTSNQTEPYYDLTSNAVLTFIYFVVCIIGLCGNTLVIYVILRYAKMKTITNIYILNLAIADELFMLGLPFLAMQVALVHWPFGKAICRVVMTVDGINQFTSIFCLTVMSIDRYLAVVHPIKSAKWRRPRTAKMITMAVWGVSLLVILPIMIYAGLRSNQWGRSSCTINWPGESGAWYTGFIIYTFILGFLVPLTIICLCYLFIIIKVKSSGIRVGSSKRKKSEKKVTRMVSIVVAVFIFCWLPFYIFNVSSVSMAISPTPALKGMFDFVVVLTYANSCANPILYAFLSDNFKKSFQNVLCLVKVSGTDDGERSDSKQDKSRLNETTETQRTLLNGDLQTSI
Chain of GPR92 (human) (Q9H1C0 whole entry): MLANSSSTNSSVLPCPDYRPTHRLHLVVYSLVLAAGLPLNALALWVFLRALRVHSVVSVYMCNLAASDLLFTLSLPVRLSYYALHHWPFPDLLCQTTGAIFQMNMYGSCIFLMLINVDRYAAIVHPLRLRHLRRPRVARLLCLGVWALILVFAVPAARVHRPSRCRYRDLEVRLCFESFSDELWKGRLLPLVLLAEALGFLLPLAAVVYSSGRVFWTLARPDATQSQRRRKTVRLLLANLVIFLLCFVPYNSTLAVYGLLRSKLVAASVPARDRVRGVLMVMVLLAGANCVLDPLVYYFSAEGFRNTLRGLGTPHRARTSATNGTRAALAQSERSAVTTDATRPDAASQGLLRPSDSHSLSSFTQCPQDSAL
Chain of GALR2 (human) (O43603 whole entry): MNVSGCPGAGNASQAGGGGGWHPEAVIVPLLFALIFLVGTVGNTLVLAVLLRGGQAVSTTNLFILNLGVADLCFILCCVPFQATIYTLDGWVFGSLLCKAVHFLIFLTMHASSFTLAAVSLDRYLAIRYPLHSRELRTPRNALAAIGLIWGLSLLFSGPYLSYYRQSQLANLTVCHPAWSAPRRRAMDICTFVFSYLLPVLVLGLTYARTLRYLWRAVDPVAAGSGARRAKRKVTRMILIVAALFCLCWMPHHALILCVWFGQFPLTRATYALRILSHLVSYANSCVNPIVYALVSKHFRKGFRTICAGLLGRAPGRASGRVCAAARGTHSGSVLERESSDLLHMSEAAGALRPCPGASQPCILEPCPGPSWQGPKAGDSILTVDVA
Chain of P2RY4 (human) (P51582 whole entry): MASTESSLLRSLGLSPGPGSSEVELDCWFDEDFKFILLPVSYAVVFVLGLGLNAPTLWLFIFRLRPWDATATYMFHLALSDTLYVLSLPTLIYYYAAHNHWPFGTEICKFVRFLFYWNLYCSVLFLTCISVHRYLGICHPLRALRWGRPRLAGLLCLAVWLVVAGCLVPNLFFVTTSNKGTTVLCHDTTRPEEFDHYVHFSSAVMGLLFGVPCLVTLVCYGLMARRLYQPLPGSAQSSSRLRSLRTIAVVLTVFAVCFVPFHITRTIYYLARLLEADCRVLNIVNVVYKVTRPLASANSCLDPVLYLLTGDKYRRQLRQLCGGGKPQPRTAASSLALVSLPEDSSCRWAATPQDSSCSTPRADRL
Chain of F2RL3 (human) (Q96RI0 48-385): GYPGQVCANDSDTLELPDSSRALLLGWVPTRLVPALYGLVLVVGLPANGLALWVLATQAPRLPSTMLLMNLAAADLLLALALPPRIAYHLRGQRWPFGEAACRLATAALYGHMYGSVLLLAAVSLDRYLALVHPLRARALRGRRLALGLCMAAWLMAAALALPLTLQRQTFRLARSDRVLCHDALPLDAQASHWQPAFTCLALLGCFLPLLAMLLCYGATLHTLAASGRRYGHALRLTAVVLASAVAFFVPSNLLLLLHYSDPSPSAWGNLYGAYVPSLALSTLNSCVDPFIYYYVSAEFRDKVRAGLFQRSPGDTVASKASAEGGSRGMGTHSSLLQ
Chain of DRD3 (human) (P35462 whole entry): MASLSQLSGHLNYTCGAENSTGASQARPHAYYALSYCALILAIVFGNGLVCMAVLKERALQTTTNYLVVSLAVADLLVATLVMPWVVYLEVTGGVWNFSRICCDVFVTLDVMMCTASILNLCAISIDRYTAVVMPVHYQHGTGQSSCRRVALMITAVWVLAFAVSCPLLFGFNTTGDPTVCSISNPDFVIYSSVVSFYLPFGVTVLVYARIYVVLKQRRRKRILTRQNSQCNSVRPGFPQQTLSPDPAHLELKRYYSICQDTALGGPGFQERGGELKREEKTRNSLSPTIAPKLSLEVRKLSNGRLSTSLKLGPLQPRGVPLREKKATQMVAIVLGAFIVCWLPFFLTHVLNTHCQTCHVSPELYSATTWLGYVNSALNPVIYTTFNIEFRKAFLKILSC
Chain of CCR4 (human) (P51679 whole entry): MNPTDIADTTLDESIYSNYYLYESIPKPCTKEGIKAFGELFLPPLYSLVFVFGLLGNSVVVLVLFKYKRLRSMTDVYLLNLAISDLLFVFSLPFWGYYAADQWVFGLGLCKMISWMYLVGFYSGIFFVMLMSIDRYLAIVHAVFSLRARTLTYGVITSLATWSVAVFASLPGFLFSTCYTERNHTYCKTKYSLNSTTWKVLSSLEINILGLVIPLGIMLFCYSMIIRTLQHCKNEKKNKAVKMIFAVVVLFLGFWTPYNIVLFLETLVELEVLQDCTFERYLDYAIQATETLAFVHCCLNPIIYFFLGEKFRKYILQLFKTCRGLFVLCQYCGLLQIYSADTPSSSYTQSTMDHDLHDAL
Chain of TACR3 (human) (P29371 whole entry): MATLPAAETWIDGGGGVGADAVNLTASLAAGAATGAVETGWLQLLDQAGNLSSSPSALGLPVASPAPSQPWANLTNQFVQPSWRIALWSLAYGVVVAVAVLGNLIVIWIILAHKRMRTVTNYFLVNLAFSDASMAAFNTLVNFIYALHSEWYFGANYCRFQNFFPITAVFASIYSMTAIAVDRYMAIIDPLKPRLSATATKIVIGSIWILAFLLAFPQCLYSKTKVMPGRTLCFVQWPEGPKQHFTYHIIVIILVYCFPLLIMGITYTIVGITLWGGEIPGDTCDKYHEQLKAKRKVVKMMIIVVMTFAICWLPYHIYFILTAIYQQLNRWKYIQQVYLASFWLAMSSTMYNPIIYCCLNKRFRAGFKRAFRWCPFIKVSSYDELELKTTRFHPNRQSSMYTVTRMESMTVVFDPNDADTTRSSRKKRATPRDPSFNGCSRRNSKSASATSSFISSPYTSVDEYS
Chain of CCR3 (human) (P51677 whole entry): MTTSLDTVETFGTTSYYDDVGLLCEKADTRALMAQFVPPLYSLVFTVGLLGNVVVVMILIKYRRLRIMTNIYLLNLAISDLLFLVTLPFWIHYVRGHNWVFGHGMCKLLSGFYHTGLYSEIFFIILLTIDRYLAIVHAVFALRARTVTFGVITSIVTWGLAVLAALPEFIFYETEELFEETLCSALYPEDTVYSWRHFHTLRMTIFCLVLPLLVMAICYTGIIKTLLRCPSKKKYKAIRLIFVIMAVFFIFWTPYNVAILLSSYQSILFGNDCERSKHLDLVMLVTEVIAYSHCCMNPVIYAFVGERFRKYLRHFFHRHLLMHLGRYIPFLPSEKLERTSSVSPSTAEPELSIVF
Chain of EBI2 (human) (P32249 whole entry): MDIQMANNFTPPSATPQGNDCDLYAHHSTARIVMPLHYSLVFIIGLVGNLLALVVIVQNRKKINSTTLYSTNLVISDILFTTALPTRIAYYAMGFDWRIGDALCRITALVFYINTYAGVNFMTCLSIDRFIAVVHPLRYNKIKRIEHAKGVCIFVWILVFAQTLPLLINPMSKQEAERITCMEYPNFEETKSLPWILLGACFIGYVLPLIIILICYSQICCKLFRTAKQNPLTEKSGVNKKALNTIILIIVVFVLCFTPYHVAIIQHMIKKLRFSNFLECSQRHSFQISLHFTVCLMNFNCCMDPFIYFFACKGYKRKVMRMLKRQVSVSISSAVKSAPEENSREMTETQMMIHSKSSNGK
Chain of NPY2R (human) (P49146 whole entry): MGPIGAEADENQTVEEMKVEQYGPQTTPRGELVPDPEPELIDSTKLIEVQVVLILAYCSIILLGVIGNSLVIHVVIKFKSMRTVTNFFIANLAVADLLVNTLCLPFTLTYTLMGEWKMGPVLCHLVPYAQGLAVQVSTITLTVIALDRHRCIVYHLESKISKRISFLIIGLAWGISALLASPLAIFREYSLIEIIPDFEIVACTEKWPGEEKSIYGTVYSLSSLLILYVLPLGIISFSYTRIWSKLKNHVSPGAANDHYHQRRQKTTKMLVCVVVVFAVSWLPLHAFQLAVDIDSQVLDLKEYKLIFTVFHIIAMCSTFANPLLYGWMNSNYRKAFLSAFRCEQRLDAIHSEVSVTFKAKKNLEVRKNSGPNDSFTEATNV

With {DOTA}-[dF]RCF[dW]KTF[N(2-mercaptoethyl)Gly]-NH2 (disulfide 3-9; also: Ga complex of DOTA) [SEQ ID NO: 4] the % Activity (agonist mode, 1 µM) [1] was -1%, the % Activity (agonist mode, 1 µM) [2] was 0% and the % Activity (agonist mode, 1 µM) [3] was -4%. It also gave a % Activity (agonist mode, 1 µM) [4] of -3%, a % Activity (agonist mode, 1 µM) [5] of -1% and a % Activity (agonist mode, 1 µM) [6] of -4%. It also gave a % Activity (agonist mode, 1 µM) [7] of 1%, a % Activity (agonist mode, 1 µM) [8] of 0% and a % Activity (agonist mode, 1 µM) [9] of 9%. The % Activity (agonist mode, 1 µM) [10] was -1%, the % Activity (agonist mode, 1 µM) [11] was 0% and the % Activity (agonist mode, 1 µM) [12] was 1%. For the same binder, the % Activity (agonist mode, 1 µM) [13] was -1%, the % Activity (agonist mode, 1 µM) [14] was 1% and the % Activity (agonist mode, 1 µM) [15] was 0%. For the same binder, the % Activity (agonist mode, 1 µM) [16] was 2%, the % Activity (agonist mode, 1 µM) [17] was 0% and the % Activity (agonist mode, 1 µM) [18] was 1%. For the same binder, the % Activity (agonist mode, 1 µM) [19] was -1%, the % Activity (agonist mode, 1 µM) [20] was 0% and the % Activity (agonist mode, 1 µM) [21] was 0%. The % Activity (agonist mode, 1 µM) [22] was 1%, the % Activity (agonist mode, 1 µM) [23] was 1% and the % Activity (agonist mode, 1 µM) [24] was 2%. It also gave a % Activity (agonist mode, 1 µM) [25] of 0%, a % Activity (agonist mode, 1 µM) [26] of -5% and a % Activity (agonist mode, 1 µM) [27] of 0%. It also gave a % Activity (agonist mode, 1 µM) [28] of -8%, a % Activity (agonist mode, 1 µM) [29] of 1% and a % Activity (agonist mode, 1 µM) [30] of 2%. It also gave a % Activity (agonist mode, 1 µM) [31] of 0%, a % Activity (agonist mode, 1 µM) [32] of 1% and a % Activity (agonist mode, 1 µM) [33] of -5%. The % Activity (agonist mode, 1 µM) [34] was 16%, the % Activity (agonist mode, 1 µM) [35] was 1% and the % Activity (agonist mode, 1 µM) [36] was -1%. It also gave a % Activity (agonist mode, 1 µM) [37] of 0%, a % Activity (agonist mode, 1 µM) [38] of 0% and a % Activity (agonist mode, 1 µM) [39] of -1%. It also gave a % Activity (agonist mode, 1 µM) [40] of 0%, a % Activity (agonist mode, 1 µM) [41] of 32% and a % Activity (agonist mode, 1 µM) [42] of -2%. The % Activity (agonist mode, 1 µM) [43] was 1%, the % Activity (agonist mode, 1 µM) [44] was -2% and the % Activity (agonist mode, 1 µM) [45] was 1%. It also gave a % Activity (agonist mode, 1 µM) [46] of -1%, a % Activity (agonist mode, 1 µM) [47] of 0% and a % Activity (agonist mode, 1 µM) [48] of 1%. For the same binder, the % Activity (agonist mode, 1 µM) [49] was 1%, the % Activity (agonist mode, 1 µM) [50] was 1% and the % Activity (agonist mode, 1 µM) [51] was 0%. It also gave an IC50 [52] of 56 nM, a Ki [52] of 30 nM and an IC50 [53] of 140 nM. For the same binder, the Ki [53] was 78 nM, the IC50 [54] was > 1000 nM and the Ki [54] was 880 nM. It also gave an IC50 [55] of 1 nM.
